Laboratory results: publication PMC8748767 (Nature Communications, 2022)

B1: Tyrosine hydroxylase deletion mutant with the first 35 residues deleted (THNΔ35) (domain or fragment)
chain: not shown
notes: human tyrosine hydroxylase isoform TH1 with the first 35 residues deleted; numbers count on: isoform TH1; also called THΔN35; THΔ35; source: recombinant, construct derived from pETMBP1a/TH (Genscript), expressed and purified essentially as TH; not shown: His, N-terminal, cleaved; MBP, N-terminal, cleaved
B2: Tyrosine hydroxylase deletion mutant with the entire N-terminal removed (THNΔ70) (domain or fragment)
chain: not shown
notes: human tyrosine hydroxylase isoform TH1 with the entire N-terminal tail (residues 1-70) removed; numbers count on: isoform TH1; also called THΔN70; source: recombinant, construct derived from pETMBP1a/TH (Genscript), expressed and purified essentially as TH; not shown: His, N-terminal, cleaved; MBP, N-terminal, cleaved
B3: Tyrosine hydroxylase deletion mutant lacking the N-terminal 43 residues (THNΔ43) (domain or fragment)
chain: not shown
notes: human tyrosine hydroxylase isoform TH1 lacking the N-terminal 43 residues; numbers count on: isoform TH1; source: recombinant, construct derived from pETMBP1a/TH (Genscript), expressed and purified essentially as TH; not shown: His, N-terminal, cleaved; MBP, N-terminal, cleaved

Target: the molecule itself
Test: SEC; preparative size-exclusion chromatography, HiLoad Superdex 200 prep grade (1.6 cm × 60 cm), 20 mM Na-Hepes pH 7, 200 mM NaCl

Stoichiometry N, 4:
B1, B2, B3
